Changes are numbered by the printed parent chain.
B1: 424 (protein)
chain: LDNGLARTPTMGWLHWERFMCNLDCQEEPDSCISEKLFMEMAERMVSEGWKDAGYEYLCIDDCWMAPQRDSEGRLQADPQRFPHGIRQLANYVHSKGLKLGIYADVGNKTCAGFPGSFGYYDIDAQTFADWGVDLLKFDGCYCDSLENLADGYKHMSLALNRTGRSIVYSCEWPLYMWPFQKPNYTEIRQYCNHWRNFADIDDSWKSIKSILDWTSRNQERIVDVAGPGGWNDPDMLVIGNFGLSWDQQVTQMAEWAIMAAPLFMSNDLRHISPQAKALLQDKDVIAINQDPLGKQGYQLRKGDNFEVWERPLSGDAWAVAIINRQEIGGPRSYTIPVASLGKGVACNPACFITQLLPVKRQLGFYNWTSRLKSHINPTGTVLLQLENTMQMSLKDLL
modifications: Synthetic Polypeptide sequence of Variant No. 424 of mature Human GLA
B2: 365 (protein)
chain: B1 chain with S47N, E255L
modifications: Synthetic Polypeptide sequence of Variant No. 365 of mature Human GLA
B3: 427 (protein)
chain: B1 chain with E255L, L263G
modifications: Synthetic Polypeptide sequence of Variant No. 427 of mature Human GLA
B4: 425 (protein)
chain: B1 chain with E255L, H271E
modifications: Synthetic Polypeptide sequence of Variant No. 425 of mature Human GLA
B5: 437 (protein)
chain: B1 chain with E255L, L263E
modifications: Synthetic Polypeptide sequence of Variant No. 437 of mature Human GLA
B6: 432 (protein)
chain: B1 chain with E255L
modifications: Synthetic Polypeptide sequence of Variant No. 432 of mature Human GLA
B7: 433 (protein)
chain: B1 chain with E255L, H271Q
modifications: Synthetic Polypeptide sequence of Variant No. 433 of mature Human GLA
B8: 426 (protein)
chain: B1 chain with E255L, M259E
modifications: Synthetic Polypeptide sequence of Variant No. 426 of mature Human GLA
B9: 435 (protein)
chain: B1 chain with E255L, I258L
modifications: Synthetic Polypeptide sequence of Variant No. 435 of mature Human GLA
B10: 431 (protein)
chain: B1 chain with E255L, R270G
modifications: Synthetic Polypeptide sequence of Variant No. 431 of mature Human GLA
B11: 436 (protein)
chain: B1 chain with E255L, H271G
modifications: Synthetic Polypeptide sequence of Variant No. 436 of mature Human GLA
B12: 434 (protein)
chain: B1 chain with E255L, R270D
modifications: Synthetic Polypeptide sequence of Variant No. 434 of mature Human GLA
B13: 364 (protein)
chain: B1 chain with M39H, E255L
modifications: Synthetic Polypeptide sequence of Variant No. 364 of mature Human GLA
B14: 430 (protein)
chain: B1 chain with E255L, H271T
modifications: Synthetic Polypeptide sequence of Variant No. 430 of mature Human GLA
B15: 428 (protein)
chain: B1 chain with E255L, M259S
modifications: Synthetic Polypeptide sequence of Variant No. 428 of mature Human GLA
B16: 429 (protein)
chain: B1 chain with E255C
modifications: Synthetic Polypeptide sequence of Variant No. 429 of mature Human GLA

Experiments:
Assay type in all cases: biochemical
[1] = HTP-analysis of yeast culture supernatants, no challenge (MUGal hydrolysis); conditions: activity of the variant/activity of Rd4BB (SEQ ID NO: 15)
Procedure, shortened: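 Activity read as 4-methylumbelliferyl α-D-galactopyranoside hydrolysis: fluorescence (355/448 nm) after sodium carbonate stop, following 30-180 min at 37° C with 2 mM MUGal stock at pH 4.6–4.8. Enzyme source is unchallenged culture supernatant of INVSc1 yeast expressing GLA variants, grown 66-84 h at 30° C.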

[2] = HTP-analysis of supernatants pretreated with acid (MUGal hydrolysis); conditions: activity of the variant/activity of Rd4BB (SEQ ID NO: 15); challenge at pH 3.7
Procedure, shortened: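 GLA variants were secreted from INVSc1 yeast grown 66-84 h at 30° C. in SD-Ura with 2% glucose; supernatants were mixed with McIlvaine buffer pH 3.3-4.3 and held at 37° C. for 1-3 h. Residual activity on MUGal at pH 4.8 was then measured by fluorescence.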

[3] = HTP-analysis of supernatants pretreated with base (MUGal hydrolysis); conditions: activity of the variant/activity of Rd4BB (SEQ ID NO: 15); challenge at pH 9.65
Procedure, shortened: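 GLA variants secreted from yeast INVSc1; culture supernatants pre-incubated with McIlvaine buffer pH 7.0–8.2 or 200 mM bicarbonate pH 9.1–9.7 at 37° C. for 1–18 h. Residual activity: MUGal (4 mM stock) hydrolysis at pH 4.3–4.8, 37° C., 30–180 min, carbonate quench; fluorescence Ex 355/Em 448 nm.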

Molecule | Relative Activity of GLA Variants After No Challenge (NC) [1] | Relative Activity of GLA Variants After Challenge at pH 3.7 [2] | Relative Activity of GLA Variants After Challenge at pH 9.65 [3]
B1 | + (0.5 to 1.5 relative activity over Rd4BB (SEQ ID NO: 15)) | + (0.5 to 1.5 relative activity over Rd4BB (SEQ ID NO: 15)) | − (<0.5 relative activity over Rd4BB (SEQ ID NO: 15))
B2 | + (0.5 to 1.5 relative activity over Rd4BB (SEQ ID NO: 15)) | + (0.5 to 1.5 relative activity over Rd4BB (SEQ ID NO: 15)) | + (0.5 to 1.5 relative activity over Rd4BB (SEQ ID NO: 15))
B3 | + (0.5 to 1.5 relative activity over Rd4BB (SEQ ID NO: 15)) | − (<0.5 relative activity over Rd4BB (SEQ ID NO: 15)) | − (<0.5 relative activity over Rd4BB (SEQ ID NO: 15))
B4 | + (0.5 to 1.5 relative activity over Rd4BB (SEQ ID NO: 15)) | − (<0.5 relative activity over Rd4BB (SEQ ID NO: 15)) | + (0.5 to 1.5 relative activity over Rd4BB (SEQ ID NO: 15))
B5 | + (0.5 to 1.5 relative activity over Rd4BB (SEQ ID NO: 15)) | + (0.5 to 1.5 relative activity over Rd4BB (SEQ ID NO: 15)) | − (<0.5 relative activity over Rd4BB (SEQ ID NO: 15))
B6 | + (0.5 to 1.5 relative activity over Rd4BB (SEQ ID NO: 15)) | − (<0.5 relative activity over Rd4BB (SEQ ID NO: 15)) | + (0.5 to 1.5 relative activity over Rd4BB (SEQ ID NO: 15))
B7 | + (0.5 to 1.5 relative activity over Rd4BB (SEQ ID NO: 15)) | + (0.5 to 1.5 relative activity over Rd4BB (SEQ ID NO: 15)) | + (0.5 to 1.5 relative activity over Rd4BB (SEQ ID NO: 15))
B8 | + (0.5 to 1.5 relative activity over Rd4BB (SEQ ID NO: 15)) | − (<0.5 relative activity over Rd4BB (SEQ ID NO: 15)) | − (<0.5 relative activity over Rd4BB (SEQ ID NO: 15))
B9 | + (0.5 to 1.5 relative activity over Rd4BB (SEQ ID NO: 15)) | ++ (>1.5 to 2.5 relative activity over Rd4BB (SEQ ID NO: 15)) | − (<0.5 relative activity over Rd4BB (SEQ ID NO: 15))
B10 | + (0.5 to 1.5 relative activity over Rd4BB (SEQ ID NO: 15)) | − (<0.5 relative activity over Rd4BB (SEQ ID NO: 15)) | − (<0.5 relative activity over Rd4BB (SEQ ID NO: 15))
B11 | + (0.5 to 1.5 relative activity over Rd4BB (SEQ ID NO: 15)) | − (<0.5 relative activity over Rd4BB (SEQ ID NO: 15)) | − (<0.5 relative activity over Rd4BB (SEQ ID NO: 15))
B12 | + (0.5 to 1.5 relative activity over Rd4BB (SEQ ID NO: 15)) | − (<0.5 relative activity over Rd4BB (SEQ ID NO: 15)) | − (<0.5 relative activity over Rd4BB (SEQ ID NO: 15))
B13 | + (0.5 to 1.5 relative activity over Rd4BB (SEQ ID NO: 15)) | + (0.5 to 1.5 relative activity over Rd4BB (SEQ ID NO: 15)) | − (<0.5 relative activity over Rd4BB (SEQ ID NO: 15))
B14 | + (0.5 to 1.5 relative activity over Rd4BB (SEQ ID NO: 15)) | − (<0.5 relative activity over Rd4BB (SEQ ID NO: 15)) | + (0.5 to 1.5 relative activity over Rd4BB (SEQ ID NO: 15))
B15 | + (0.5 to 1.5 relative activity over Rd4BB (SEQ ID NO: 15)) | + (0.5 to 1.5 relative activity over Rd4BB (SEQ ID NO: 15)) | − (<0.5 relative activity over Rd4BB (SEQ ID NO: 15))
B16 | + (0.5 to 1.5 relative activity over Rd4BB (SEQ ID NO: 15)) | + (0.5 to 1.5 relative activity over Rd4BB (SEQ ID NO: 15)) | − (<0.5 relative activity over Rd4BB (SEQ ID NO: 15))

— patent US11278600B2, “Human alpha-galactosidase variants” (Codexis, Inc., priority 2014, dated 2022)
